Assay results published in the nanobody polyreactivity screen of Harvey et al. (2022).

Assay: yeast display, Sf9 membrane polyspecificity reagent, FACS + sequencing; frameworks hold sequencing errors
Summary of the method: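 Using colony PCR, genes from sorted yeast display clones were amplified, then sequenced on MiSeq at 2 × 250 and filtered by CDR length. The clones had been stained with 10% biotinylated, detergent-solubilized Sf9 membrane reagent for 1 hour at 4 °C and sorted by FACS into low and high (top ~1%) gates on anti-HA and streptavidin fluorescence. Polyreactivity labels come from the gate of origin.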

Sequence: QVQLVESGGGLVQAGGSLRLSCAASGSIFDLYAKGWYRQAPGKERELVAGISYSGGSTYYADSVKGRFTISRDNAKNTVYLQMNSLKPEDTAVYYCATAYYYHGGYYYPYDDYWGQGTQVTVSS
- polyreactivity (PSR sort gate): low polyreactivity

Sequence: QVQLVESGGGLVQAGGSLRLSCAASGRIFNRNAMGWYRQAPGKERELVAAISSSGGSTYYADSVKGRFTISRDTAKNTVYLQMNSLKPEDTAVYYCAAVTQSYGYYYWGQGTQVTVSS
- polyreactivity (PSR sort gate): high polyreactivity

Sequence: QVQLVESGGGLVQAGGSLRLSCAASGRPFKRYAMGWYRQAPGKEREVVAAITASGGNTYYADSVKGRFTISRDNAKNTVYLQMNSLKPEDTAVYYCARGSYSGGSKYNYWGQGTQVTVSS
- polyreactivity (PSR sort gate): high polyreactivity

Sequence: QVQLVESGGGFVQAGASLRLSCAASGRTCHGYAMGWYRQAPGKERDLVAAINASGGRTYYAESVKGRFTISRDNAKNTVYLLMNSLNPEDTAVYYCGVYSASFRYGLANDYWGQGTQVTVSS
- polyreactivity (PSR sort gate): high polyreactivity

Sequence: QVQLVESGGGLVQAGGSLRLSCPASGFTLHSYAMGWYRQAPGKERELVAAITRSGGGTYYADSVKGRFTISRDNAKNTVYLQMNSLKPEDTAVYYCAARFGGQYQHDYWGQGTQVTVSS
- polyreactivity (PSR sort gate): high polyreactivity

Sequence: QVQLVESGGGLVQAGGSLRLSCAASGGTFTFYAMGWYRQAPGKERELVATINWSGGSTYYADSVKGRFTISRDNAKNTVYLQMNSLKPEDTAVYYCNAAWPYKSVEYWGQGTQVTVSS
- polyreactivity (PSR sort gate): low polyreactivity

Sequence: QVQLVESGGGLVQAGGSLRLSCAASGRTFANYAMGWSRQAPGKERELVAAISSGGNTYYADSVKGRFTISRDNAKNTVYLQMNSLKPEDTSVYYCNADYLIKYDYWGKGTQVTVSS
- polyreactivity (PSR sort gate): high polyreactivity

Sequence: QVQLVESGGGLVQAGGSLRLSCAASGNIFRPYTMGWNRQEPGKERELVARISSGGSTNYADSVKGRFTISRDNAKNTVYFQMNSLKPEDTAVYYCAKRYGTVHSRYGYWGQGTQVTVSS
- polyreactivity (PSR sort gate): high polyreactivity

Sequence: QVQLVESAGGLVQAGGTLRLSCAASGSIFRTHTMGWYRQAPGKERELVAAITAIGDSTYYADAVKGRFTISRDNAKNTVNRQLHSLKPEDTAVYYCAAEKVSWGYHFYSSYDYWGQGTQVTVSS
- polyreactivity (PSR sort gate): low polyreactivity

Sequence: QVQLEESGGGLVQAGGSLRLSCAASGLTFVQYTMGWYRQAPGKERELVAVITSASSTNYADSVKGRFTISRDNAKNTVYLQMNSLKPEDPAVYYCNATTYPYYTNSYQYEYWGQGTQVTVSS
- polyreactivity (PSR sort gate): low polyreactivity

Sequence: QVQLVESGGGLVQAGGSLRLSCAASGSIIYANAMGWYRQAPGKEREFVATITDSGAITYYADSVKGRFTISRDNAKNTVYLQMISLKPEDTAVYYCNKDLVVYSVPTHDYDYWGQGTQVTVSS
- polyreactivity (PSR sort gate): low polyreactivity

Sequence: QVQLVESGGGLVQAGGSLRLSCAGSGRIFTQYAMGWYGQAPGKERELVAAINASDGSTYADSVKGRFTISRDNAKNTVYLQMNSLKPEDTAVYYCNVTGGPYDFTRWSEFDHWGQGTQVTVSS
- polyreactivity (PSR sort gate): low polyreactivity

Sequence: QVQLVESGGGLVQAGGSLRLSSAASGSTFLLNAMGWYRQAPGKERELVAAITWSGSRTYYADSVKGRFTISRDNPKYNVYLQMNSLKPEDTAVYDCAAEYRDTRRYSYDYWGQGTQVTVSW
- polyreactivity (PSR sort gate): high polyreactivity

Sequence: QVQLVESGGGLVQAGGSLRLSCAASGNTFGTYVMGWYRPAPGKERELVAAISQSGGSTDYADSVKGRFTISRDNAKYTVYLQMNSLKPEETAVYYCAKVTWGTVWYRSPSEYDYWGQGTQVTVSS
- polyreactivity (PSR sort gate): low polyreactivity

Sequence: QVQLVESGGGLVQAGGSLRLSCAASGRIFPPNAMGWYRQAPGKERELVAAITGSGGSTYYADSVKGRFTITRDNAKNTVYLQKNSLKPADTAVYYCAVESLGRVSRGYDYWGQGTQVTVSS
- polyreactivity (PSR sort gate): low polyreactivity

Sequence: QVQLVETGGGIVQAGGRLRLTCAASGSSFYSYAMGWYRQAPGKEMELVAAITTSGGNTLYADSVKGRFTISRDNAKNTVDLQMNSLKPEDTADYYCAADVFRGGDYEYDYWGQGTQVTVSS
- polyreactivity (PSR sort gate): low polyreactivity

Sequence: QVQLVESGGGLVQAGGSLRLSCAASGRTFEYYAMGWYRPAPGKERELVAAITWSVGSTYYADSVKGRFTISRDNAKNTVYLQMNSLKPEDTAGYYCAVDVVYTWPFPVEYYYWGQGTQVTVSS
- polyreactivity (PSR sort gate): high polyreactivity

Sequence: QVHLVESGGGLVQAGGILRLSCAAYGSTFKSYAMGWYRLAPGKERELVAAISSSTGRTYYADSVKGRFTISLDYAKNTVYLQMNSMKPEDTAVYYCNAVHRYERDYCGQGTQVTVSS
- polyreactivity (PSR sort gate): high polyreactivity

Sequence: QVQLVESGGGLVQAGGSLRLSCAASGFTFFLYAMGWYRQAAGKERELGAAINSRGGSTYYADSVKGRFTLSRDNAKNTVYLQMNSLKPEDTAVYYCAAYIPRSYCGYDYGGQGTQVTVSS
- polyreactivity (PSR sort gate): high polyreactivity

Sequence: QVQLVESGGGLVQAGGSLRLSCAASGSTLRGYTMGWYRQAPGKERELVAAISWSGASTYYADSVKGRFTISRDNAKNTVYLQMNSLKPEDTAVYYCNRAGRYVREYTVDYWGQGTQVTVSS
- polyreactivity (PSR sort gate): high polyreactivity

Sequence: QVQLVESGGGLVQAGGSLRLSCAASGITFLVYVMGWYRQAPGKERELVAAISSGGSTYYADSVKGRFTISRDNAKNTVYVQMNSLKPEDTAVYYCAAERKLYGLYDYWGQGTQVTVSS
- polyreactivity (PSR sort gate): low polyreactivity

Sequence: QVQLVESGGGLVQAGGSLRLSCAASGSIFYEYAMGWYRQAPGKERELLASINRGGGSTYYADSVKGRFTISRDNAKNTVYLQMNSLKPEDTAVYYCAAQWKYRQSYLDYYWGQGTQVTVSS
- polyreactivity (PSR sort gate): low polyreactivity

Sequence: QVQLVESGGGLVQAGGSLRLSCAASGSILDIYAMGWYRQAPGKERELVASISWGGGSTYYADSVKGRFTISRDNAKNTVYLQMNSLKQEDTAVYYCNAVYDLYHYWKFYYWGQGTQVTVSS
- polyreactivity (PSR sort gate): low polyreactivity

Sequence: QVQLVESGGGLVQAGGSLRLSCAASGSTLPRYTMGWYRQAPGKERELVAAISFSGSSTYYADSVKGRFTISRDNAKNTVYLQMNSMKPEDTSVYYCRYGYNYWGQGTQVTVSS
- polyreactivity (PSR sort gate): high polyreactivity

Sequence: QVQLVESGGGLVQAGGSLRLICAASGIIFYVNAMGWYRQAPGKERELVAAITRGGTTYYADSVKGRFTISRDNAKNTVYLQMNSLKPEDTAVYYCAARLRYTTGIYYYWGQGTQVTVSS
- polyreactivity (PSR sort gate): high polyreactivity

Sequence: QVQLVESGGGLVQARGSLRLSCAASGRTSPYYAMGWYRQAPGKEREWVAAISDGGSTNYADSVKGRFTISRDNAKNTVYLQMNSLKPEDTAVYYCAAYWHCFGWLRGGYWGQGTQVTVSS
- polyreactivity (PSR sort gate): high polyreactivity

Sequence: QVQLVESGGGLVQAGGSLRLSCAASGFTFRRNGRGWYRPAPGKERELVAAIRGSDGSTYYADSVKGRFTISRDTAKNTVYLLMNSLKPADTAVYYCIVVGKGLYRKMGYWGQGTQVTVSS
- polyreactivity (PSR sort gate): high polyreactivity

Sequence: QVQLVESGGGLVQAGGSLRLSCAASGRIFGRNAMGWYRQAPGKERELVAAISSGSGSTYYADSVKGRFTISRDNAKNTVYLQMISLKPEDTAVYYCAATVSTYLAWRGYWGQGTQVTVSS
- polyreactivity (PSR sort gate): high polyreactivity

Sequence: QVQLVESGGGLVQAGGSLRLSCAASGSTFLGYAMGWYRQAPGKERELVAAITYSGGGTYYADSVKGRFTISRDNAKNTVYLQMNSLKPEDTAVYYCNADVSWSYSVYREYGMDYWGQGTQVTVSS
- polyreactivity (PSR sort gate): low polyreactivity

Sequence: QVQLVESGGGLVHAGGSLRLSCAASGSIFKYYAMGWYRQAPGKERELVAAISSGGSTNYADSVKGRFTISRDNAKNTVYLQMNSLKPEDTAVYYCAVDRYCWLDGYDYWGQGTQVTVSS
- polyreactivity (PSR sort gate): high polyreactivity

Sequence: QVQLVESGGGLVQAGGSLRLSCAASGFIFDVYAMGWYRQAPGKERELVAAITSGDGTNYADSVKGRFTISRDNAKNTVYLQMNSLKPEDTAVYYCAADYGVTYRGIIFSYWGQGTQVTVSS
- polyreactivity (PSR sort gate): low polyreactivity

Sequence: QVQLVESGGGLVQAGGSLRLSCAASGYIFVRYAMGWYRQAPGKEREFVAAISSSGGSTRYADSVKGRFTISRDNAKNTVYLQMNSLKPEDTAVYYCAATRVARHGSPMYYWGQGTEVTVSS
- polyreactivity (PSR sort gate): high polyreactivity

Sequence: QVQHVESGGGLVQAGGSRRLSCAASGSTFYGYAMGWYRQAPGKEREFVAAITTSGGSTYYADSVKGRFTISRDNANNTVYLQMNSLKPEDTAVYYCAADGFYYDDGYWGQGTQVTVSS
- polyreactivity (PSR sort gate): low polyreactivity

Sequence: QVQLVDSGGGLVQAGGSLRLSCAASGRIFHVYAMGWYRKAPGKERELLADITWSGGSTYYADSVKGRFTISRDNAKNTVYLQMNSLKPEDTAVYYCAAAYYGYARWRGPRKMDYWGQGTQVTVSS
- polyreactivity (PSR sort gate): high polyreactivity

Sequence: QVQLVESGGGLVQAGGSLRLSCAASGSIFSHNAMGWYRQAPGKERELVAAITGIVGSTYYADSVKGRFTISRDTAKNTVYLQMNSLNPEDTAVYYCAADNPVPEGSRTFEYWGQGTQVTVSS
- polyreactivity (PSR sort gate): low polyreactivity

Sequence: QVQLVESGGGLVQAGGSLRLSCAPSGFTFLYYVMGWYRQAPGKERELVAAINAGGGSTYYAESVKGRFTLSRDNAKNSVYLQMKSLKPADTAVYYCNARVRVRLGRNWSSYYDWGQGTQVTVSS
- polyreactivity (PSR sort gate): high polyreactivity

Sequence: QVQLVESGGGLVQAGGSLRLSCAASGRIFWPYAMGWYRPAPGKERELVAAITSGGSTYYADSVKGRFTISRDNAKNTVYLQMNSLKPEVTAVYYCAKRSSGVSVPVAYGGIKRYNSWGQGTQVTVSS
- polyreactivity (PSR sort gate): low polyreactivity

Sequence: QVQLVESGGGLVQAGGSLRLSCAASGIIFDEYAMGWYIQAPGKERELVAAITRDGGTNYADSVKGRFTISRDNAKNTVYLQMNSLKPEDTAVYYCAKRAYFYYGRYDYWGQGTQVTVSS
- polyreactivity (PSR sort gate): low polyreactivity

Sequence: QVQLVESGGGLVQAGGSLRLSCAASGRTFPWYAMGWYRQAPGKERELVATISRSGASTYYADSVKGRFTISRDNAKNTVYLQMNSLKPEDTAVYYCAARLGYATLYSWGQGTQVTVSS
- polyreactivity (PSR sort gate): high polyreactivity

Sequence: QVQLVESAGGLDQAGGSLRLICDASGFISRNAMGWYTQAPGKERELVAAITRGGSTNYADSVKGRFTISRDNAKNTVYLQMNSLKPEDSAVYYCNQQRQGNSRSYYQTYYGMYYWGQGTQVTVSS
- polyreactivity (PSR sort gate): high polyreactivity

Sequence: QVQLVESGGGLVQAGGSLRLSCAASGSIFRIYAMGWYRQAPGKERELVAGISKSGGSTYYADSVKGRFTISRDNAKNTVYLQMNSLKPEDTAVYYCAAGYYYFWTYDYWGQGTQVTVSS
- polyreactivity (PSR sort gate): low polyreactivity

Sequence: QVQLVESGGGLVQAGGSLRLSCAASGRTFRNYAMGWSRPAPWKERELVATITSSGASTYYADSVKGRFTISRDNAKNTVYLQMNSLKPEDTAVYYCAARPYTGRYFLCYYYWGQGTQVTVSS
- polyreactivity (PSR sort gate): high polyreactivity

Sequence: QVQLVESGGGLVQAGGSLRLSCAASGRIFAWYAMGWYRQAPGKDRELVAAISDSGGSTYYADSVKGRFTISRDNAKNTVYLQMNSLKPEVTAVYYWAADQVVYYAYWSDHYDDWGQGTQVTVSS
- polyreactivity (PSR sort gate): low polyreactivity
